Values of other authors as cited in publication PMC7948954.
Each block holds one substance with its values, some of them ahead of it.

Legend:
[1] = biological target: SAP30 (UniProt O88574)
[2] = biological target: Mad1 (UniProt Q05195)
[3] = biological target: Pf1 (UniProt Q96QT6)
[4] = biological target: Col10 (Arabidopsis thaliana) (UniProt Q9LUA9)
[5] = biological target: DREB2a (Arabidopsis thaliana) (UniProt O82132)
[6] = biological target: ANAC087 (Arabidopsis thaliana) (UniProt Q9FK44)
[7] = biological target: ANAC013 (Arabidopsis thaliana) (UniProt F4IED2)
[8] = biological target: STO (Arabidopsis thaliana) (UniProt Q96288)
UniProt Q96288, sequence (Q96288 whole entry): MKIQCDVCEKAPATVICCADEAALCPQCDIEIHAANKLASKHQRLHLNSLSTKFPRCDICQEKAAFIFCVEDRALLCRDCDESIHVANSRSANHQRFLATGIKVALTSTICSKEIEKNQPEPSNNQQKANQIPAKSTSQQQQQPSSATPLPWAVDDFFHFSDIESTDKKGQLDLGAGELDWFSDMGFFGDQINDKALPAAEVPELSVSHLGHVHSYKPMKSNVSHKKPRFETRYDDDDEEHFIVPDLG

UniProt O82132, sequence (O82132 whole entry): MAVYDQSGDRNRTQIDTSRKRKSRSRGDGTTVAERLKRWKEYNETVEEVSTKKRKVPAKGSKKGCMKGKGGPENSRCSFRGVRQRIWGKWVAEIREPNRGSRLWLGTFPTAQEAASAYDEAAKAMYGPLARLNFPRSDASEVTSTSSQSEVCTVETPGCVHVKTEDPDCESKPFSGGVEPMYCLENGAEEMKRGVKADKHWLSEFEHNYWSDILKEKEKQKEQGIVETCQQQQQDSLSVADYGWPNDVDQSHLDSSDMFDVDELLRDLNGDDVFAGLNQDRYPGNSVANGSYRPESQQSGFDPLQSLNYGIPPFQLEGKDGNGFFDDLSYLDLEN
UniProt Q05195, sequence (Q05195 5-24): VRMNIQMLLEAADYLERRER
UniProt Q9FK44, sequence (Q9FK44 whole entry): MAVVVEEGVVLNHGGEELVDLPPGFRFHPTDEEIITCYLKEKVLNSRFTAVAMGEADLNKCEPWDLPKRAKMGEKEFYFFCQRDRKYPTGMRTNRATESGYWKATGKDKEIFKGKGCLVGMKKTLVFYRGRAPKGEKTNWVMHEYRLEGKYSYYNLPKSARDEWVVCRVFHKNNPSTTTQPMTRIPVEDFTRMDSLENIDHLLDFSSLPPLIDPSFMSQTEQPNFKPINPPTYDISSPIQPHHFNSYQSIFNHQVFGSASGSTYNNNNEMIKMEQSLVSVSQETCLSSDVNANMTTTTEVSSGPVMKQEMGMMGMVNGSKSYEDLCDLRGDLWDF
UniProt Q96QT6, sequence (Q96QT6 202-241): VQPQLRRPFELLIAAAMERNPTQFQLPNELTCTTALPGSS
UniProt Q9LUA9, sequence (Q9LUA9 whole entry): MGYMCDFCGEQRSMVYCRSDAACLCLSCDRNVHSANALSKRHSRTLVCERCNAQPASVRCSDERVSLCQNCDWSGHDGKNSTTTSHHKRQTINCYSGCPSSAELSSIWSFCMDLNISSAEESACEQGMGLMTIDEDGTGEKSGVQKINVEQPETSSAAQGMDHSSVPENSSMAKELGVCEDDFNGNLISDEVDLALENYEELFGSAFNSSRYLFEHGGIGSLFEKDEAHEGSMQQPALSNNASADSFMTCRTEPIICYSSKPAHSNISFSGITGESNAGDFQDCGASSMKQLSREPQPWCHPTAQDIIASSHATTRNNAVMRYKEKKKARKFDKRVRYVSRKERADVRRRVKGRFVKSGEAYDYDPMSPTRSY
UniProt F4IED2, sequence (F4IED2 whole entry): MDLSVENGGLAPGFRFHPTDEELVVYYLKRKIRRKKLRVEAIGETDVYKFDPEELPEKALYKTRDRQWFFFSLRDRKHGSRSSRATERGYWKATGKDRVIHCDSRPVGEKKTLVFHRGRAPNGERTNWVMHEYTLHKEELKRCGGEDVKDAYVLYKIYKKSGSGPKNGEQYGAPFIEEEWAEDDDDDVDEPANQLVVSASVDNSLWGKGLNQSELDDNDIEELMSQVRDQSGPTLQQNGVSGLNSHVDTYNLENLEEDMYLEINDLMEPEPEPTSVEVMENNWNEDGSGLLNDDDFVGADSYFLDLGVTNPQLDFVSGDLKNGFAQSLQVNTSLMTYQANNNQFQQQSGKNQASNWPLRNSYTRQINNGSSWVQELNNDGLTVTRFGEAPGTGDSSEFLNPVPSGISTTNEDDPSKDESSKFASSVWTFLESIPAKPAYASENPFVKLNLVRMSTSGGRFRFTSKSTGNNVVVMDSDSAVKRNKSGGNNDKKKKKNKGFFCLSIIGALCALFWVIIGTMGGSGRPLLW
UniProt O88574, sequence (O88574 130-220): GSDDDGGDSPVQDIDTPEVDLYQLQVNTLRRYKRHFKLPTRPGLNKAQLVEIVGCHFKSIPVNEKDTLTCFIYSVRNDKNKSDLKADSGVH

Kd [1]: 9 nM
Substance: Sin3a PAH3 (from UniProt Q60520)

Kd [2]: 50 nM
Kd [3]: 2000 nM
Substance: Sin3 PAH2 (from UniProt Q60520)

Kd [4]: 418 nM
Kd [5]: 16 nM
Kd [6]: 1800 nM
Kd [7]: 9 nM
Kd [8]: 90 nM
Substance: RCD1 RST (from UniProt Q8RY59)
